Test: soluble on expression in E. coli; label from the status in PepcDB or PDB records

Sequence | soluble on expression in E. coli
MRIAIIGSGCSGLTAIKNLLDAGLKEIICFEKSDQIGGNWVYTAAPSHSSVSEATHIISSKALSQFSDFPMPDDYPDYPSHQQILAYFQAYTRHFHLDHYIRFNTAVLRAEKIEKERWCLHLDDGTQAEFDYLLVANGHHSVPRHPDWKECFTGKYLHAHEYKTNQGLEGKRILVVGAGNSGCDCAVEASRVAARVDISLRSPQYIIPKFIMGRPTDTFAATFHWLPQSVQDGLQRISLRLQIGRYHDYALPEPDFSPTRAHPTINSALFDKIRHGKVHPRPGIQKVSGQTVYFADNATAQYDVLIAATGYKISFPFFDRDFLDWEEAAHIPLFLRIFHPDHPSLFFVGLIQPQGCIWPLAEIQARLIGQLLTNKIQLPLNWRKLALSEGRNRAQQFIARPRHSIEVHYYPYLKQLQRMIQGQIKLEHHHHHH | soluble
MRIEGELVKAKFVKRLNRFVALVEVDGVQEFAHVPNTGRLKELLVDGAAVMVRKYDKTDRKTRFGLILVRKNGIWVSIDSANAPNRIMYEALVQGKFDKFRDYSEIRREVTVLNSRFDFGLFSEGKEYYIEVKGVTLVENRQGFFPDAPTQRGTRHLEELTKIRQNGKEAGVAFIVQREDADVVRPNDRTDKNFANALRIAAEAGVDLMAYVCKVDAEQRRMDIVREIPVIIK | soluble
MRIFAVFIFMTYWHLLNAFTVTVPKDLYVVEYGSNMTIECKFPVEKQLDLAALIVYWEMEDKNIIQFVHGEEDLKVQHSSYRQRARLLKDQLSLGNAALQITDVKLQDAGVYRCMISYGGADYKRITVKVNAPYNKINQRILVVDPVTSEHELTCQAEGYPKAEVIWTSSDHQVLSGKTTTTNSKREEKLFNVTSTLRINTTTNEIFYCTFRRLDPEENHTAELVIPELPLIEGRSRGSGLNDIFEAQKIEWHHHHHHHH | soluble
MRIFLNTVHLFALCAAAAIATEESTTPKPASWKFGTIAGEPDDYTNSTAVQVNNFKECIAKCSAIFDCIIASQKSKSEPCNLFLWNSVTKVKRAESGGEGQTAFRVFTEQPRCKLSMDELLNGKKYQIYKNDTEHYIWTINKTEDGWAMEYSKTILNNIIHCNDPDAYKYPGVRGCYKIVLPFKEDKKWESGMLSYPEAVGNCTLLGGDGLMTIPSSDFASQIKQNQNSTQSSTVYFIGLTRPDDSSNDNWVWTLPDLKIDSSPLPPWSFPPSLNVEAIWAENCALVSIEADPTKSLLHATLCQQWNRMSGYICHFAQ | not soluble
MRILFVGPPLYGLLYPVLSLAQAFRVNGHEVLIASGGKFAQKAAEAGLVVFDAAPGFDSEAGYRRQEALRKENNIGTKMGNFSFFSEEMTDPLVAFAGQWRPDLIVYPPLGVVGPLIAAKYDIPVVMQTVGFGHTPWHIKGVTKSLSNAYRRHGVSAPPRDLAWIDVTPPSMSILQNDGEPVISMQYVPYNGGAVWEEWWERTPDRKRLLVSLGTVKPMVDGLDLISWVMDSAGEVDAEIILHLPANARSDLRSLPPNVRLVDWLPMGVFLNGADGFIHHGGAGNTLTALHAGIPQIVFGQGADRPVNARAVVERGCGIIPGKSGLTSSMINTFLGNRALREASQEVAAEMAAQPCPTEVAKKLIAMLQHGLEHHHHHH | not soluble
MRILHTSDWHLGQNFYSKSREAEHQAFLDWLLETAQTHQVDAIIVAGDVFDTGSPPSYARTLYNRFVVNLQQTGCHLVVLAGNHDSVATLNESRDIMAFLNTTVVASAGHAPQILPRRDGTPGAVLCPIPFLRPRDIITSQAGLNGIEKQQHLLAAITDYYQQHYADACKLRGDQPLPIIATGHLTTVGASKSDAVRDIYIGTLDAFPAQNFPPADYIALGHIHRAQIIGGMEHVRYCGSPIPLSFDECGKSKYVHLVTFSNGKLESVENLNVPVTQPMAVLKGDLASITAQLEQWRDVSQEPPVWLDIEITTDEYLHDIQRKIQALTESLPVEVLLVRRSREQRERVLASQQRETLSELSVEEVFNRRLALEELDESQQQRLQHLFTTTLHTLAGEHEA | soluble
MRILVVRHGLPEDPRCFAYDPVQRLIAIGTGRGHIRIIGDAGVDYLLKHESGEPVLHMQFLVNEGGLITSCGTDSIHLWNYRQKTAEIVHTVQLSKESVSCIHLPVAGKWLFIGTDKGNVYFLCLNSFLLSPYVINWNKAIDLSCRVHPGPVRQLAVSPAENTKLLIVYDKGIVVQWNLGTREVDRYPLDPPIKSVNWHFDGRQILTGNVDGSISLYNHKKSTEAIQRTTPHGSGPCRPIQQVEWKHMSETESIIMFSGGMPTDDGLPMPALTILKGGKSATVLEMDWPIIQFIPLNQNIWNSIPQCPHSVAVLLKHDFMVLDLNQNGHPVIESPHAMNIHESPVTCMAYYSDCPLDLIGALTLVGTKQRNKEFSARSWPVTGGLGRECATGHQELVVTGHKDGSLKFWQETGEHLQILYKLKSSSHFERLEEMETSDKVSHAVKYIELCLESRQLLVAGISGQVTLFRFTKQEICGTIAVVNIPLLGNLSSNLPNNDFDKSPVPNGPGKEIRRQRKIVSRESTNSLDTSDSGDERIVPFKVRGAPVKRPPGFVPELACFVPWHSHAKVDQITTICLNSSYGIIAIGTSSGLALVDTTQCALIYSWTTNELYGSDPTPAIQLSMQLSDAASPLEIDEFENDDTLIYNTDTGNYTLRSTRNSLTPSSNGFLHPGEMPTRPKSAANSSNKSGGMMGLFRRNTAELAATIRERYQGNRSESATTDRPDVEHRGETPPPTPNEGNKVQKAGRSHSVKGSFIRRFAKSSSSKEKKEVKIEVDNQSNSGIERSRSFHSHISEEGDSQRESPSSGRQLNTSSPSTSSQSLERSMSTQPQESITSLSFIHSYSKKNDSKMSPCLWVGTSAGASLALNLILPEDRFTSTIVVAPSGTVVRLKGQVISQSFMDNTFCIISPASESYKEAAKEQSATSPDRSLLNRVNTKASLAPQYSSSIDSNDEISQILIVAAENEVKVVALPTFSQLYVQKFDEIPLVKATPTHIRGYPCLMCLSAAGQIIMLSLPSLRILQTSTIFPHSVEIDDPLCQKTAFSDHGLGVYMASQTEMEKYTMCSEIAEQTGESLGELFVPCEMPEQPKNNSFLKGVSSIFGGTPRNDPNDIDAILSENMGVKNSSGVNPMRSVARTIPGPSVQMDRAQAGGVSAGQAAAMALQNLNERTEKLNATVDATENLKNNAMSLSSRTGKLVEKYEKKKWYNF | not soluble
MRISAKGRYALAAVISMAQQYNNGEYITVISISEKLGISKIFLEQVFSSLKKAKIVSSTKGVQGGYQLTRTPSQITVLDVLLSVEVSLFEQTQETVSDKAPDIEQALRSSVFDVLDKNIKQTLSTITIADLVAEAEKHKDYNALMFYI | soluble
MRITSTANPRIKELARLLERKHRDSQRRFLIEGAREIERALQAGIELEQALVWEGGLNPEEQQVYAALGRVGRLALLEVSEAVLKKLSVRDNPAGLIALARMPERTLEEYRPSPDALILVAVGLEKPGNLGAVLRSADAAGAEAVLVAGGVDLYSPQVIRNSTGVVFSLRTLAASESEVLDWIKQHNLPLVATTPHAEALYWEANLRPPVAIAVGPEHEGLRAAWLEAAQTQVRIPMQGQADSLNVSVSAALLLYEALRQRLLRDRLTKTHSTL | soluble
MRKFMMSVVMLAALTSCATQNMHGNYAAVSIEANKTMADVTVAQLVALYPPAHTRLDFQQTITDPYGAALLSALRKKGYSVLEYNPQPQAVPAKSAATAALVTANPTSGLPLSYVVDSPESMNLYRITVQIGVQSISRAFVVATNGNLYPAGAWVRKELEHHHHHH | not soluble
MRKGCFGLVSLVLLLLVGCRSHPEIPVNDEQSLVMESSLLAAGISAEKPFLSTSDIQPSASSTLYNERQEPVTVHYRFYWYDARGLEMHPLERPRSVTIPAHSAVTLYGSANFLGAHKVRLYLYLLEHHHHHH | soluble
MRKKKDGQNLPDFRKNPPKLDKKAYEKELKRLQAELVDLQQWVVETGARVVIVMEGRDAAGKGSAIKRITQYLNPRSARIEALPTPNSREKGQWYFQRYIEKLPTAGEIVIFDRSWYNRAGVERVMGFCTSQEYRRFLHQAPIFERLLVEDGIHLRKYWFSVSDEEQIERFEDRLSDPLRRWKLSPMDLQSITRWEDYSRAKDEMFIHTDIPSAPWYTVESEDKKRSRINVISHLLSTIPYEKIDRPLPEIPHRPDSESDYVRPPRDEFRYVPDVAAHLEEERIKKEEKAKKAKKPAKAAGKNSDKQKSSGGKGKKKSKK | not soluble
MRKLLAVFSKGRWKMEQKLQEQLDGLLEKYTELLLGETNDELKEEVKQWILYTHIAKSMPPLAKHWNATYPDAKQGIKEIIQHIKELNEAHRNKQLEHHHHHH | soluble
MRKLVIPKYYGRPSIGLALFGCTNRPFYHVCVFPDRALGRRYEGNILEQVGTFDPLPNQKNEKLVALNFGRLKYWIGERNAHISVPVLELLGERRNCLSGLFPIHPKSFIRAKDNRALIADQQLKVAAEAAEAEKVAQEQASTGAAATSHPQ | not soluble

Reference: the DeepSol protein solubility set
